# Reference: IntAct's records for PubMed 21572041
# B1: C-type lectin domain family 2 member D (Homo sapiens), Q9UHP7-1 (parent)
# chain: MHDSNNVEKDITPSELPANPGCLHSKEHSIKATLIWRLFFLIMFLTIIVCGMVAALSAIRANCHQEPSVCLQAACPESWIGFQRKCFYFSDDTKNWTSSQRFCDSQDADLAQVESFQELNFLLRYKGPSDHWIGLSREQGQPWKWINGTEWTRQFPILGAGECAYLNDKGASSARHYTERKWICSKSDIHV
# Variants of: B1
# Details: with klrb1_human KLRB1, Q12918
# Chain of klrb1_human KLRB1, Q12918 (Q12918 whole entry): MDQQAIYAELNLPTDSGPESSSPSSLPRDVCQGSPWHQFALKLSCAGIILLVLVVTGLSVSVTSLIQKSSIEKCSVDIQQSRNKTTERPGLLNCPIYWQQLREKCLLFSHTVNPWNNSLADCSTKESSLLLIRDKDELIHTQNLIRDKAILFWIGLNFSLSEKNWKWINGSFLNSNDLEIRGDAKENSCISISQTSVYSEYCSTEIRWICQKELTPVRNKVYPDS
row,Variant,effect of a mutation on the interaction
1,K181E,disrupting interaction strength
2,Y165A,decreasing interaction strength
3,R180E,disrupting interaction strength
4,R175E,disrupting interaction strength
5,N167A,decreasing interaction strength
6,K169E,disrupting interaction strength

# Variants of: B1
# Details: with klrb1_human KLRB1, Q12918
# Remark: another data set of the same source
row,Variant,effect of a mutation on the interaction
1,K169E,increasing interaction strength
